Experimental data: patent US20120141376A1, “PROSTATE SPECIFIC TRANSCRIPTS AND THE USE THEREOF FOR PROSTATE CANCER THERAPEUTICS AND DIAGNOSTICS” (priority 2006, published 2012)

Columns and labels:
[1] = tested on: PSMA messenger RNA (mRNA); settings: LNCaP prostate cancer cell line after exposure; cited from earlier work
[2] = tested on: HLA class I (e.g. HLA-A2) expressing adherent 293T cells; assay: CTL assay on reverse transfected microarray (caspase activation, fluorescent Z-VAD); assay type: cell-based, human; settings: HLA-matched CD8+ T cells from prostate cancer patients incubated 4 hours on array; red fluorescent signal = positive response
Excerpt: Additional patient samples were procured for the cytotoxic T Lymphocyte (CTL) assay. […] (PBMC) were isolated from blood drawn from patients with relevant clinical parameters, and with patient consent. Clinical data generally included patent history, physiopathology, and parameters relating to prostate cancer physiology. PBMCs were collected from 6 prostate cancer patients that met the study requirements. Duplicate samples were obtained from a single patient.
The 192 selected DATAS fragments were PCR amplified out of the library vector and directionally cloned into a eukaryotic expression vector down stream from staggered start site initiation codons. This configuration allows the DATAS fragment to be expressed in all the open reading frames, which is required because the correct reading frame is not always readily apparent.
Plasmid preparations were performed and the expression vectors containing the selcted DATAS fragment clones were re-arrayed into 96 well plates, which were subsequently used to spot glass slides for use in the CTL assay previously disclosed in International Patent Application No. PTC/US2005/032392, the disclosure of which is incorporated by reference in its entirety.
A design file containing the desired microarray positions of the DATAS expression vectors was uploaded into a high resolution scanner. The expression vectors containing the DATAS fragments were mixed with gelatin and lipofectamine and then spotted in duplicate in a pattern that matched the design file uploaded into the high resolution microarray scanner. The following positive controls, negative controls and experimental samples were spotted on the array.
The spotted arrays were then overlaid with HLA class I (e.g. HLA-A2) expressing adherent 293T cells and cultured for 48-72 hours to allow cells time to express vector-encoded transcripts.
The assay for CTL reactivity was then performed by incubating HLA-matched CD8^+ T cells from normal and prostate cancer patients on cultured reverse transfected microarray slides for 4 hours. Prior to incubation with the array, T cells from normals or patients may need to be expanded in vitro, to a small or large extent, to enhance the frequency of responding T cells. An inhibitor of activated caspase, fluorescence-tagged (sulfo-Rhodamine)-Z-VAD, is present throughout the cell incubation to bind caspases that become activated when antigen expressing adherent cells on certain spots are induced to die by the CTL. The slides are then washed to remove unbound fluorescent Z-VAD and 2-color (Green and Red) fluorescence images of the microarray slides are obtained with the microarray scanner.
Analysis and confirmation of data is then determined by visual inspection of the scanned image. The success of the reverse transfection is evaluated by observing green fluorescence at EGFP vector control spots. Then the fluorescence threshold(s) are adjusted on microarray scanner as necessary to establish relevant background and positive control signal intensities. […] Using the coordinate locations for the spots, the cDNAs yielding positive responses are identified.

C[C@]12CCC(=O)C[C@@H]1CC[C@@H]1[C@@H]2CC[C@]2(C)[C@@H](O)CC[C@@H]12 [5-alpha-dihydroxytestosterone]
PSMA messenger RNA (mRNA) down-regulated [1]: 8-10 fold

B1: No. 1: DATAS fragment; chromosome 14 open reading frame 122; exon extension (nucleic acid, listed as Homo sapiens)
DNA: CTACCGGGGGAAGGGTCAAAGAGCGTGCCGAAGCGCTGGAGGGAGCTTCACGGACGCGAGCTAGGCACCGGCTCGCCTAATCCGGTACTAATCCGGCTTGCTGCTTCCCGTCCAGGCCTCGCTCGCCATGGGGGAGGTGGAGATCTCGGCCCTGGCCTACGTGAAGATGTGCCTGCATGCTGCCCGGTACCCACACGCCGCAGTCAACGGGCTGTTTTTGGCGCCAGCGCCGCGGTCTGGAGAATGCCTGTGCCTCACCGACTGTGTGCCCCTCTTCCACAGCCACCTGGACCTGTCCGTCATGTTGGAGGTCGCCCTCAACCAGGTGCCTCCGTTGCAT
Patient ID with positive hit [2]: EYGRT

B2: No. 2: DATAS fragment; melanoma assoc. antigen (mutated) 1; exon extension (nucleic acid, listed as Homo sapiens)
DNA: GGCTCAGGGGGCACGTTTGCGTTTGGACCTGTCTGCGCGTTCTCCTGCGTGGCAGTCCTGATTTCCATACTTCTGGAGAATCCATTTCGTTAACACTGAAAGCCAGTTCTCTTTTCCTGGCAGTTTTTTTCATTTTATTTTTGGCATTTTTTACAAGATACCGTTCGGGAAAGGCTTTTGAAAGGACGGAAGCGTATTCACTGTGCGCCAGTACTCCTGGCTGTGCTGTGGTTTCTCCCGACGTGCACATCGATCTCGTATGTGTGGCATCTGATATTAAACGGGAGGTTTTAAGAAGCGTCTGCCGTGATCATGGAGCTTCGGAAGCGGGAATGGTTCTTCCGGGTTTGCTGTTTTGTCTGTTTCCCCCTTGTGTGGTTTCCGCCTGCGACAGTTCCAGAATTTGCTCTCCCACTCAGTGTGCTCTGCAGCTG
Patient ID with positive hit [2]: EYGRT; MSMPB

B3: No. 3: DATAS fragment; aminoacylase 1; exon extension (nucleic acid, listed as Homo sapiens)
DNA: CCAGGCAGCTGGCGAGGGGGTCACCCTAGAGTTTGCTCAGGTATGGACTTGGGACATGTGATGGGAGAGTGTGGGAGCCGGGGGAGACCCAAGTGTGCAACAGTGGAGTGTGTGCTTGGTGTGTCTGCATATGTCTGGGCATTTCTTTATCTGTGACAGACACATTTTATTCCAACAAGCATTCATTGTAGAGGCCACTGTGGGTGCTGGGGAATGCTGTGGGGAGTAAAATTAGGCACAGTTCATGCCCTTGTATGGTGAAACGGGGAGATATAAATCAAACATTTATGTGATATTACTTTTTTCTGAGAGAATCTCACTCCGTCAC
Patient ID with positive hit [2]: MSMPB

B4: No. 21: DATAS fragment; GenBank human mRNA AK123820; exon extension (nucleic acid, listed as Homo sapiens)
DNA: GGCGGCAGGTCTAATCTGGCACACTTGCTAACTTCTAATAAAGAATCAAATGGTCTTCCAACTCACATAATGACTAATTCTAAAGCATGCAACCTCAAAGTACTACATTCTCCCTGTTCTAGAAATACAACCCTAGAGGGCCAGTCTTCCTTCAGCATTCAAATATTGAGTAGAACAACTGAACTGTAAGGTTCAACTAAAGGAATGCAACTGTGACTTGAGCTGTGGAACGGCTATGGCCTAAGTCAAGAATTCTCAACCTCCCAC
Patient ID with positive hit [2]: EYGRT
